Laboratory results from US20250122266A1, “SMART SINGLE-DOMAIN INTRABODIES WITH PRECISION SWITCHES FOR BIOMEDICAL APPLICATIONS” (THE TEXAS A&M UNIVERSITY SYSTEM, priority 2020, published 2025).

Legend:
[1] = aqueous solutions, purified protein; read-out: dissociation constant (Kd); cited from earlier work
[2] = HeLa cells
Description: The PM-translocation of acVHH-PB variants was used as a readout for high-content imaging. HeLa cells were seeded in a glass-bottom 96-well microplate (Cellvis, Mountain View, CA, USA) at a density of 1×10^4 cells/well and cultured in 40 μL DMEM supplemented with 10% FBS in 5% CO2 at 37° C. 12 hours later, the constructed plasmids were transfected into HeLa cells with Lipofectamine 3000. After 18 hours, the microplate was mounted on the IN Cell Analyzer 6000 (GE) high-content imaging instrument in the absence of caffeine and performed fast imaging with four captured views per well. Next, the microplate was incubated with caffeine (1 μM) for 10 min and re-imaged using the same parameters. The exported florescent images were then analyzed with an Image J PathFinder plugin for automated membrane detection and quantification. The screened top candidate mutations were further characterized by titration with increasing doses of caffeine to obtain the EC50 cures in living cells. The PM/Cytosol ratios were quantified and plotted against the dosest to obtain the apparent binding affinity. […]
Caffeine was titrated into HeLa cells expressing YFP-acVHH-PB variants (as shown in FIG. 2C) and used the PM-to-cytosol ratio of fluorescent signal as a sensitive readout.

[3] = test system: mCherry (NE-tethered mCh-lamin A); test: NP-to-NE translocation assay of sunbody variants; type: cell-based; settings: HeLa cells, GFP-tagged LaM8-LOV2 constructs, after photostimulation
Description: (§1) To monitor light-induced F-body: antigen association or dissociation, HeLa cells seeded on glass-bottom dishes were co-transfected with the indicated plasmids shown in the figures. Confocal images were acquired 24-48 hours after transfection. The cells were imaged every 4 sec for 2 nmin unless otherwise noted. The 488-nm laser source to excite GFP was also used for photostimulation (with 1-5% output). To quantify fluorescent signals at selected areas, we used the region-of-interest (ROI) toolbox in Nikon NIS-Elements software to define the nuclear envelope (NE) or nucleoplasm (NP) regions. The “Time Measurement” tool was used to determine the mCherry intensities for moonbody variants and GFP intensities for sunbody variants. The fluorescence intensity ratio (FNE/FNP) was used as readout, with the changes in the ratio plotted as F/F0 or ΔF/F0. For spatially-restricted photostimulation, the FRAP module in the Nikon imaging system was used, with the 488-nm laser power output set at 0.2%-5%.
The instant example screens photo-switchable nanobodies using a similar engineering approach and the NE translocation assay (see FIGS. 20A-20B). For this example, an mCherry-specific nanobody (LaM8) was used and LOV2 was inserted into flexible loop regions opposing the CDRs (see FIG. 20B and FIG. 21A), the latter of which are involved in direct antigen recognition and thus remain unperturbed.

[4] = test system: SH2 domain of Abl (NE-SH2); test: nuclear envelope (NE) translocation assay of moonbody variants; type: cell-based
Description: as §1
The instant example provides a light-controllable monobody by inserting the LOV2 photoswitch into a fibronectin type III domain (FN3) scaffold that specifically recognizes the Src Homology 2 (SH2) domain of Abelson tyrosine kinase (Abl). […]

SH2-mEmerald = test: moonbody regulated protein degradation; type: cell-based; settings: moonbody fused with AFB2, escalating doses of pulsed light
Description: The plasmid encoding the moonbody fused with the F-box protein atAFB2 was co-transfected with SH2-mEmerald into HeLa cells. Cells were treated with or without a customized blue light source (470 nm, 40 μW/mm2) after 16 h transfection. Light stimulation was applied for 10% (1 min ON, 9 min OFF), 30% (3 min ON, 7 min OFF), or 50% (5 min ON, 5 min OFF). After an additional 16 hours, cells were imaged and SH2-mEmerald mean intensity were measured. Moonbody without atAFB2 was used as control.
It was then evaluated if moonbody could be utilized to conditionally fine-tune the expression levels of its binding target. The SH2-specific moonbody was fused with the auxin signalling F-box 2 protein (AFB2), a component in the Skp1-Cu1-F-Box (SCF) E3 ubiquitin ligase complex that can recruit auxin-inducible degrons for proteasomal degradation. Monobody can directly recognize its target, thus obviating the need for auxin and the fusion of the degron tag to a target protein.

B1: WT: wild-type anti-caffeine single variable domain on a heavy chain (acVHH), tested as PB-tagged YFP fusion (protein)
VHH: QLVESGGGLVQAGGSLRLSCAVSGRPFSEYNLGWFRQAPGKEREFVARIRSSGTTVYTDSVKGRFSASRDNATCVVHYTGMLEDGKKFDSSRDRNKPFKFMLGKQEVIRGWEEGVAQMSVGQRAKLTISPDYAYGATGHGSGSGSGVKDLLQAWDLYYHVFRRISGPPGPGSGLWHEMWHEGLEEASRLYFGERNVKGMFEVLEPLHAMMERGPQTLKETSFNQAYGRDLMEAQEWCRKYMKSGSSGGSGSGIIPPHATLVFDVELLKLEKNMGYLQLNSLEPEDTAVYYCAMSRVDTDSPAFYDYWGQGTQVTVSTPRS
[1]
  Kd: 500 nM

B2: biCOSMO-L: two COSMO copies connected by longer mixed flexible and rigid linker, SEQ ID NO: 7 (protein)
chain: EVQLQASGGGLVQAGGSLRLSCTASGRTGTIYSMAWFRQAPGKEREFLATVGWSSGITYYMDSVKGRFTISRDNAKNSAYLQMNSLKPEDTAVYYCTATRAWSVGYDYWGQGTQVTVSHAAAGAPVPYPDPLEPREQKLISEEDLGGSGGAPEVQLQASGGGLVQAGGSLRLSCTASGRTGTIYSMAWFRQAPGKEREFLATVGWSSGITYYMDSVKGRFTISRDNAKNSAYLQMNSLKPEDTAVYYCTATRAWSVGYDYWGQGTQVTVS
[2]; 200 or 1000 nM caffeine
  caffeine-inducible PM translocation: caffeine-induced PM translocation was no longer observed
[2]; PB-tagged variants, caffeine titration
  EC50 (caffeine sensitivity), result in words: Intramolecular binding

B3: sunbody: anti-mCherry nanobody LaM8 with LOV2 at N-terminus (S0) and S3 loop, SEQ ID NO: 2 (protein)
chain: LATTLERIEKNFVITDPRLPDNPIIFASDSFLQLTEYSREEILGRNCRFLQGPETDRATVRKIRDAIDNQTEVTVQLINYTKSGKKFWNLFHLQPMRDQKGDVQYFIGVQLDGTEHVRDAAEREGVMLIKKTAENIDEAAKELKLMAQVQLVESGGGLVQAGGSLRLSCAVSGRPFSEYNLGWFRQAPGKEREFVARIRSSGTTVYTDSVKGRFSASRDNALERIEKNFVITDPRLPDNPIIFASDSFLQLTEYSREEILGRNCRFLQGPETDRATVRKIRDAIDNQTEVTVQLINYTKSGKKFWNLFHLQPMRDQKGDVQYFIGVQLDGTEHVRDAAEREGVMLIKKTAENIDEAAKNMGYLQLNSLEPEDTAVYYCAMSRVDTDSPAFYDYWGQGTQVTVSTPRS
[3]
  light-induced change in the NE/NP ratio: over 80%

B4: moonbody: anti-SH2 Abl monobody with LOV2 inserted at site S5 (optimized), SEQ ID NO: 1 (protein)
chain: VSSVPTKLEVVDATPTSLKISWDAYYSSWQNVKYYRITYGETGGDSPVQEFTVPGYYSTATISGLKPGSGLATTLERIEKNFVITDPRLPDNPIIFASDSFLQLTEYSREEILGRNCRFLQGPETDRATVRKIRDAIDNQTEVTVQLINYTKSGKKFWNLFHLQPMRDQKGDVQYFIGVQLDGTEHVRDAAEREGVMLIKKTAENIDEAAKELGVDYTITVYAYDTFFPGYEPNSPISINYRT
[4]; HeLa cells, NE/NP ratio of mCh signals
  light-dependent moonbody-target interaction: almost complete dissociation from NE
[4]; reversibility
  repeated NE-to-NP translocation, number of dark-light cycles: at least 10 dark-light cycles
SH2-mEmerald
  target protein level under pulsed light: gradual recovery of SH2-mEmerald signals
